In article PMC10397247:

Columns and labels:
Assay in all cases: two-hybrid library CCmax;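 also: natural log of median RNA to DNA barcode read ratio; higher means stronger binding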
4H881-AA = target: T1, 4H881-AA; settings: mean of both orientations
T1 chain: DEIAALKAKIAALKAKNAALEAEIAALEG

4H342-AA = target: T2, 4H342-AA; settings: mean of both orientations
T2 chain: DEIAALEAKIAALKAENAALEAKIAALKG

4H406-AA = target: T3, 4H406-AA; settings: mean of both orientations
T3 chain: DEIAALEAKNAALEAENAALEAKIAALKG

4H429-AA = target: T4, 4H429-AA; settings: mean of both orientations
T4 chain: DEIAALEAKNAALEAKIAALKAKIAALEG

4H2774-AA = target: T5, 4H2774-AA; settings: mean of both orientations
T5 chain: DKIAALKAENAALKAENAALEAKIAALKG

4H_APH = target: T6, 4H_APH
T6 chain: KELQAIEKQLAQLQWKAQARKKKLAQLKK

4H3606-AA = target: T7, 4H3606-AA; settings: mean of both orientations
T7 chain: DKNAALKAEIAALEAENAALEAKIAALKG

4H2575-AA = target: T8, 4H2575-AA; settings: mean of both orientations
T8 chain: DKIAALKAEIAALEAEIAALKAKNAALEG

4H2931-AA = target: T9, 4H2931-AA; settings: mean of both orientations
T9 chain: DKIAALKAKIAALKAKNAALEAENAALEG

4H317-AA = target: T10, 4H317-AA; settings: mean of both orientations
T10 chain: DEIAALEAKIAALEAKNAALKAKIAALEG

4H2837-AA = target: T11, 4H2837-AA; settings: mean of both orientations
T11 chain: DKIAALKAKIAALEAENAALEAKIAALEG

4H2732-AA = target: T12, 4H2732-AA; settings: mean of both orientations
T12 chain: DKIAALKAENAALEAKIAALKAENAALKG

4H3001-AA = target: T13, 4H3001-AA; settings: mean of both orientations
T13 chain: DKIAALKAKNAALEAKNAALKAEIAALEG

4H347-AA = target: T14, 4H347-AA; settings: mean of both orientations
T14 chain: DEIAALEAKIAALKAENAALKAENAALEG

4H906-AA = target: T15, 4H906-AA; settings: mean of both orientations
T15 chain: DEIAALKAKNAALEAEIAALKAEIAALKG

4H3921-AA = target: T16, 4H3921-AA
T16 chain: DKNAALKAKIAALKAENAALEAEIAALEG

4H2754-AA = target: T17, 4H2754-AA
T17 chain: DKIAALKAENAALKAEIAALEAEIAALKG

4H3438-AA = target: T18, 4H3438-AA; settings: mean of both orientations
T18 chain: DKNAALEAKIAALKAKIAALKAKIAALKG

4H2617-AA = target: T19, 4H2617-AA; settings: mean of both orientations
T19 chain: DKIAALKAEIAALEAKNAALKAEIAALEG

4H48-AA = target: T20, 4H48-AA; settings: mean of both orientations
T20 chain: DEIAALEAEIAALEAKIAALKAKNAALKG

4H2642-AA = target: T21, 4H2642-AA; settings: mean of both orientations
T21 chain: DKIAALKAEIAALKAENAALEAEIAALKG

4H566-AA = target: T22, 4H566-AA; settings: mean of both orientations
T22 chain: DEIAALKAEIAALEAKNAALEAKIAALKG

4H3655-AA = target: T23, 4H3655-AA; settings: mean of both orientations
T23 chain: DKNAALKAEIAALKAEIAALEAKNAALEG

4H993-AA = target: T24, 4H993-AA; settings: mean of both orientations
T24 chain: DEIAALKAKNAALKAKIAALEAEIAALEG

4H3073-AA = target: T25, 4H3073-AA; settings: mean of both orientations
T25 chain: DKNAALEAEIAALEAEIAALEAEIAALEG

4H3627-AA = target: T26, 4H3627-AA
T26 chain: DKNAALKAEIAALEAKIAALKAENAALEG

4H_BCR = target: T27, 4H_BCR; settings: mean of both orientations
T27 chain: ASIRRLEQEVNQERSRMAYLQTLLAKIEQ

4H717-AA = target: T28, 4H717-AA; settings: mean of both orientations
T28 chain: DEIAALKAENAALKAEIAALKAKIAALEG

GCN2_T = settings: mean of both orientations
4H_GCN4 = target: 4H_GCN4
4H2729-AA = target: T29, 4H2729-AA; settings: mean of both orientations
T29 chain: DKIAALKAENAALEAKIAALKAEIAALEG

4H452-AA = target: T30, 4H452-AA; settings: mean of both orientations
T30 chain: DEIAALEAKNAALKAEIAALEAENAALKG

4H335-AA = target: T31, 4H335-AA; settings: mean of both orientations
T31 chain: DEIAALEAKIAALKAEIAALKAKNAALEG

4H3844-AA = target: T32, 4H3844-AA; settings: mean of both orientations
T32 chain: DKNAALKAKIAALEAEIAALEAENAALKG

4H2466-AA = target: T33, 4H2466-AA
T33 chain: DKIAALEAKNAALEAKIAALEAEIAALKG

4H780-AA = target: T34, 4H780-AA; settings: mean of both orientations
T34 chain: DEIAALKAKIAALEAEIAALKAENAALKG

4H56-AA = target: T35, 4H56-AA
T35 chain: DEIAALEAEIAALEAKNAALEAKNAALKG

4H2883-AA = target: T36, 4H2883-AA; settings: mean of both orientations
T36 chain: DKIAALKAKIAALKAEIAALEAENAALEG

4H2592-AA = target: T37, 4H2592-AA; settings: mean of both orientations
T37 chain: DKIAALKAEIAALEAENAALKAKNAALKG

4H678-AA = target: T38, 4H678-AA; settings: mean of both orientations
T38 chain: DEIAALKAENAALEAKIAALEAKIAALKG

4H794-AA = target: T39, 4H794-AA; settings: mean of both orientations
T39 chain: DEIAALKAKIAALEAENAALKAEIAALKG

4H605-AA = target: T40, 4H605-AA; settings: mean of both orientations
T40 chain: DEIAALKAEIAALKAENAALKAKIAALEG

4H3343-AA = target: T41, 4H3343-AA; settings: mean of both orientations
T41 chain: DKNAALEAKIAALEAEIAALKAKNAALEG

4H2505-AA = target: T42, 4H2505-AA; settings: mean of both orientations
T42 chain: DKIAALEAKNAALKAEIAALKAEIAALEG

4H3015-AA = target: T43, 4H3015-AA; settings: mean of both orientations
T43 chain: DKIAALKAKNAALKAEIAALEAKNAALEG

4H3427-AA = target: T44, 4H3427-AA; settings: mean of both orientations
T44 chain: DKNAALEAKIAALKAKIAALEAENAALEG

4H2944-AA = target: T45, 4H2944-AA; settings: mean of both orientations
T45 chain: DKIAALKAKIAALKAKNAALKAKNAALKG

4H2949-AA = target: T46, 4H2949-AA; settings: mean of both orientations
T46 chain: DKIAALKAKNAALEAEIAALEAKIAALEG

4H454-AA = target: T47, 4H454-AA; settings: mean of both orientations
T47 chain: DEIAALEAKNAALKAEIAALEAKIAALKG

4H3112-AA = target: T48, 4H3112-AA; settings: mean of both orientations
T48 chain: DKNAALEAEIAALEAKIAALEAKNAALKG

4H249-AA = target: T49, 4H249-AA; settings: mean of both orientations
T49 chain: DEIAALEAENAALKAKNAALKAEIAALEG

Chain of 4H_GCN4 (chain, as listed by the source): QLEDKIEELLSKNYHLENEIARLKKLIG

- interaction score (4H881-AA): -2.04
- interaction score (4H342-AA): -0.478
- interaction score (4H406-AA): -1.25
- interaction score (4H429-AA): -0.101
- interaction score (4H2774-AA): -1.69
- interaction score (4H_APH): -0.895
- interaction score (4H3606-AA): -1.47
- interaction score (4H2575-AA): -1.2
- interaction score (4H2931-AA): -1.81
- interaction score (4H317-AA): -1.82
- interaction score (4H2837-AA): -1.28
- interaction score (4H2732-AA): -1.42
- interaction score (4H3001-AA): -1.55
- interaction score (4H347-AA): -2.11
- interaction score (4H906-AA): -1.22
- interaction score (4H3921-AA): -1.23
- interaction score (4H2754-AA): -0.538
- interaction score (4H3438-AA): -0.928
- interaction score (4H2617-AA): -1.65
- interaction score (4H48-AA): -1.11
- interaction score (4H2642-AA): -0.362
- interaction score (4H566-AA): -1.51
- interaction score (4H3655-AA): -1.35
- interaction score (4H993-AA): 0.55
- interaction score (4H3073-AA): -1.43
- interaction score (4H3627-AA): -1.86
- interaction score (4H_BCR): -2.46
- interaction score (4H717-AA): -1.06
- interaction score (GCN2_T): -1
- interaction score (4H_GCN4): -1.67
- interaction score (4H2729-AA): 0.493
- interaction score (4H452-AA): -1.37
- interaction score (4H335-AA): -1.59
- interaction score (4H3844-AA): -1.82
- interaction score (4H2466-AA): 1.31
- interaction score (4H780-AA): -1.2
- interaction score (4H56-AA): -2.04
- interaction score (4H2883-AA): -1.56
- interaction score (4H2592-AA): -1.71
- interaction score (4H678-AA): -0.158
- interaction score (4H794-AA): -1.43
- interaction score (4H605-AA): -1.38
- interaction score (4H3343-AA): -1.23
- interaction score (4H2505-AA): -0.434
- interaction score (4H3015-AA): -1.65
- interaction score (4H3427-AA): -1.39
- interaction score (4H2944-AA): -1.57
- interaction score (4H2949-AA): -0.713
- interaction score (4H454-AA): 0.993
- interaction score (4H3112-AA): -1.92
- interaction score (4H249-AA): -1.42
Binder: DKIAALEAKNAALEAKIAALEAEIAALKG [4H2466-AA]
